B1: Sex-determining transformer protein 2 (Caenorhabditis elegans), P34709 (parent)
chain: MKLKYNKLLVSVVIVTFVTFGLLLAECFGKSIDYQEKSIFPSFVSQGFFETRTNNEEYIIEKIAQTQENGVDMRSTLHFTQHGYLLNNISNLKIKFRQKTYTLNDVCFKPHITIFQQSSSSDQNEYPHYIQRLLLEMQRLSPCLIVTPLNCFYDIYRIHGEISNWNKNTDFLNRRLRNSYIEAIGENDERPYVKSNYGPSLIKSWADHMFDLPSKSFTNSTKDALFQKIKLWLLSIEPRQKTCAASIHSCDTPLDSEHYFNICTDMQSVDNFAEKKTKFKLEDVDEEFAMNLDCVDDQEQFIEWMQELEIRKMYSHVTEKPDYPNVVNQTCDKIFHDLNSTGIEFFDGSRSFSSTKSQFDTMQTEIVLLTPEMLLSAMQHSDFVNGFESIWTIEKAEELIHEFRLALKEETEKFKENRMSKMIRVTSRVLDNTVTTKLQSFSEKQTIHFVVNVHSLIVILFTIFVWSGAPLRSAFMFFVRDALTCLLFCFVCSTDGVIVLDTELIKYIIVLTLANLYFTTRSSFCTERLSRCIQREKRFPINSNFASLITVDTMTDSRQIQYFLSTVTKYQAAQDSYSNELFERFPKNWGCTSILIFPIVFVYWYFIDSNFDKICVSVLPSFCLAAGEELFAKNMFWKEREAMQAKQRLENEEQAESITGSSLEKLFAGNKPVSNTDKANIVKKSSIIRNQKPCLQDLSPGTYDVSNFMKYPHQASRIFREKIIGLYLRILKLRTLGVILCIPAILLIVISIGLLFIPVKRETLHTDSKQDDIFIEFEIFNFSTNWKIVNQNLKQFSEDIESIGTLYTISNWQKSFERFEQETNKNASAEWNILFKWINDEPINSAVTLFSEKSSGNQTIANPFKFRLRYGFDAKNETTVIEIVQKIDELLSKCSKNLSPKAVGVLYEHYHRIAVVWNLFAFNQLTTAGIFIILLSIITFIFAITPTIKATFLFSLLVVGTQIEVAALVHLFSLDHHQIYTNLALFAGFLAAWDPFCALLRYRRRILYKSETRRTPELASKRRVLLPIVATADIAQFFVLLITAFSILAIICSIVPELNIFFVPTVILIVIQIVAVFNSIIVSIATKQMFESEVRHYLHRDLRGSTTAVRVYNLVQKQRLASSLDEPQVELDEFSIKRSSPPCRYYAPPPKYSCKKRSRSSDEDEDSDPNQPGPSNRRSPKTGNKRVRGNGDNTELYIPNRYELIVSGKSVGGNTSAAWNGPGSTLEQNMNALEECFELGVDEYDFDEHDGDEGCELVQDMLDRERNLMNKRSTAQRRESRNIEKMKKSQENLDKEKSEEKISESKKNQDDSIESPNLPGTPANLPVDEPLPPVGRLYIVEHVLPEEYRRDPLTEPPSMEDCIRAHSDPNLPPHPRADQYPASFTRPMVEYCEDIYWTHRTGQLPPGLQVPRRPYDYYHITERTPPPEDLNWVPPAESPPIPIPQQAFDLLEERRRNHREQQDEAREGDLSDPEV
partner: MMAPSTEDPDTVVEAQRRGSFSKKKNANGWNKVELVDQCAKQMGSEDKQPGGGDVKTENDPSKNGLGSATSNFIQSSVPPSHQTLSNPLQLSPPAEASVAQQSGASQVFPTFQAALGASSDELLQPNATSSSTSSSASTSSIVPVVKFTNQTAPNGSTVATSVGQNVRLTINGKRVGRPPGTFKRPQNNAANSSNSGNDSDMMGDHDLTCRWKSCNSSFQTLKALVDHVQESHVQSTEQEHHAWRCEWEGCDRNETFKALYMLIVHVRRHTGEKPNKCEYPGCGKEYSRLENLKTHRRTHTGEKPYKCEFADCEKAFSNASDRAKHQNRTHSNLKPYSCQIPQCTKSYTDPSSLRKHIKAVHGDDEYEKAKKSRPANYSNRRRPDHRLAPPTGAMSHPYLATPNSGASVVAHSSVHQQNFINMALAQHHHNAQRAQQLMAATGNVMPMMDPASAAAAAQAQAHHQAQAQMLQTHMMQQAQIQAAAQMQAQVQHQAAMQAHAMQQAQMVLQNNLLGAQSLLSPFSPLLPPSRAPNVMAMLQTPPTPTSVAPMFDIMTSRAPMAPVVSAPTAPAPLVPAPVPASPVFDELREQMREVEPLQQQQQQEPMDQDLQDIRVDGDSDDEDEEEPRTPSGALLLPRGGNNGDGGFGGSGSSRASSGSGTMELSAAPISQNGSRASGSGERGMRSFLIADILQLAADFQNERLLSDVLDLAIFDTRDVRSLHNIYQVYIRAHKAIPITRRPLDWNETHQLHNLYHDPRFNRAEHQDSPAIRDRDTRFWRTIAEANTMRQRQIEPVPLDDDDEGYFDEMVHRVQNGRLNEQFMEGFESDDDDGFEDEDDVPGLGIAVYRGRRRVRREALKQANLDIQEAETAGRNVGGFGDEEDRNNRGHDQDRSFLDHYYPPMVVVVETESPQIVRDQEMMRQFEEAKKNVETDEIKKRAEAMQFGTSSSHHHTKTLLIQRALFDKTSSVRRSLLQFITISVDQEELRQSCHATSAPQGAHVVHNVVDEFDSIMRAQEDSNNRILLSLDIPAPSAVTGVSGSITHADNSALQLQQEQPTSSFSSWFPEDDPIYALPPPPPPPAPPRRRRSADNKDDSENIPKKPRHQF
B2: Sex-determining transformer protein 1 (Caenorhabditis elegans), P34708 (parent)
chain: B1 partner
partner: B1 chain

Variants of: B1
Settings: with tra1_caeel tra-1, P34708

| effect of a mutation on the interaction | Variant |
| --- | --- |
| decreasing interaction | C1392Y;E1393K;R1400Q |

Variants of: B2
Settings: with tra2_caeel tra-2, P34709

| effect of a mutation on the interaction | Variant |
| --- | --- |
| decreasing interaction | L723F |
